Earlier results in publication PMC8226686.

Target: insulin receptor (Homo sapiens) (UniProt P06213)
Sequence of UniProt P06213 (P06213 763-1382): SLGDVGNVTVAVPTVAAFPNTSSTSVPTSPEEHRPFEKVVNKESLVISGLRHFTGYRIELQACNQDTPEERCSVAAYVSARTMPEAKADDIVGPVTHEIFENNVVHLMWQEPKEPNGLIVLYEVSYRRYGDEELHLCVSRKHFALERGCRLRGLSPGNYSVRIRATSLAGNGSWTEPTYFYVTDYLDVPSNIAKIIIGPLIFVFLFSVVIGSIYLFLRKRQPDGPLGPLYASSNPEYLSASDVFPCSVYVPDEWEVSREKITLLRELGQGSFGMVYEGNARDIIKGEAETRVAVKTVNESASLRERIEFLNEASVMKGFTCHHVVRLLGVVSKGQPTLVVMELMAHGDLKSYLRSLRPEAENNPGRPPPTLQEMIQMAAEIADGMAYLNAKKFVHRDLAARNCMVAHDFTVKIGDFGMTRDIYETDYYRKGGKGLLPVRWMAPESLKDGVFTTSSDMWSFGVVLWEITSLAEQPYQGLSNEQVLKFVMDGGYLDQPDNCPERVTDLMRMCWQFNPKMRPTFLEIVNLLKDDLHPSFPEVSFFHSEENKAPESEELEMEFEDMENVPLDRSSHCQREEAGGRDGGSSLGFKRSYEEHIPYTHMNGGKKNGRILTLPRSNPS

Sequence of insulin (P01308 90-110): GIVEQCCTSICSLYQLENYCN

Kd: 2.2 nM
Substance: insulin (from UniProt P01308)
